Laboratory results as given in PMC11574045, “A cofactor-induced repressive type of transcription factor condensation can be induced by synthetic peptides to suppress tumorigenesis” (The EMBO Journal, 2024).

Test system: HEK293FT cells transfected with TF library
Assay: Screening of TF condensates based on fluorescent puncta
Format: cell-based
Details: Figure 1B numerical data; TF library screen, one value per transcriptional factor
Procedure, shortened: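 Condensate formation is scored as Alexa 488-labelled puncta after Flag- or GAL4-tag immunostaining of fixed HEK293FT cells expressing individual TFs, with a 12 h glucose-free or glucose-containing culture preceding fixation.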

Row | Molecule | Z score of condensed fraction
1 | PPARD (protein, UniProt Q03181 1-441, looked up) Peroxisome …: MEQPQEEAPEVREEEEKEEVAEAEGAPELNGGPQHALPSSSYTDLSRSSSPPSLLDQLQMGCDGASCGSLNMECRVCGDKASGFHYGVHACEGCKGFFRRTIRMKLEYEKCERSCKIQKKNRNKCQYCRFQKCLALGMSHNAIRFGRMPEAEKRKLVAGLTANEGSQYNPQVADLKAFSKHIYNAYLKNFNMTKKKARSILTGKASHTAPFVIHDIETLWQAEKGLVWKQLVNGLPPYKEISVHVFYRCQCTTVETVRELTEFAKSIPSFSSLFLNDQVTLLKYGVHEAIFAMLASIVNKDGLLVANGSGFVTREFLRSLRKPFSDIIEPKFEFAVKFNALELDDSDLALFIAAIILCGDRPGLMNVPRVEAIQDTILRALEFHLQANHPDAQYLFPKLLQKMADLRQLVTEHAQMMQRIKKTETETSLHPLLQEIYKDMY | -0.9649
2 | PQBP1 (protein, UniProt O60828 2-265, looked up) Polyglutamine-binding protein …: PLPVALQTRLAKRGILKHLEPEPEEEIIAEDYDDDPVDYEATRLEGLPPSWYKVFDPSCGLPYYWNADTDLVSWLSPHDPNSVVTKSAKKLRSSNADAEEKLDRSHDKSDRGHDKSDRSHEKLDRGHDKSDRGHDKSDRDRERGYDKVDRERERDRERDRDRGYDKADREEGKERRHHRREELAPYPKSKKAVSRKDEELDPMDPSSYSDAPRGTWSTGLPKRNEAKTGADTTAAGPLFQQRPYPSPGAVLRANAEASRTKQQD | -0.5347
3 | POU5F2 (protein, UniProt Q8N7G0 1-328, looked up) POU domain, class 5, …: MAGHRPSNHFCPLPGSGGGGPRGPMPLRVDTLTWLSTQAAPGRVMVWPAVRPGICPGPDVWRIPLGPLPHEFRGWIAPCRPRLGASEAGDWLRRPSEGALPGPYIALRSIPKLPPPEDISGILKELQQLAKELRQKRLSLGYSQADVGIAVGALFGKVLSQTTICRFEAQQLSVANMWKLRPLLKKWLKEVEAENLLGLCKMEMILQQSGKWRRASRERRIGNSLEKFFQRCPKPTPQQISHIAGCLQLQKDVVRVWFYNRSKMGSRPTNDASPREIVGTAGPPCPGAPVCFHLGLGLPVDIPHYTRLYSAGVAHSSAPATTLGLLRF | 1.226
4 | POU4F1 (protein, UniProt Q01851 1-419, looked up) POU domain, class 4, …: MMSMNSKQPHFAMHPTLPEHKYPSLHSSSEAIRRACLPTPPLQSNLFASLDETLLARAEALAAVDIAVSQGKSHPFKPDATYHTMNSVPCTSTSTVPLAHHHHHHHHHQALEPGDLLDHISSPSLALMAGAGGAGAAAGGGGAHDGPGGGGGPGGGGGPGGGPGGGGGGGPGGGGGGPGGGLLGGSAHPHPHMHSLGHLSHPAAAAAMNMPSGLPHPGLVAAAAHHGAAAAAAAAAAGQVAAASAAAAVVGAAGLASICDSDTDPRELEAFAERFKQRRIKLGVTQADVGSALANLKIPGVGSLSQSTICRFESLTLSHNNMIALKPILQAWLEEAEGAQREKMNKPELFNGGEKKRKRTSIAAPEKRSLEAYFAVQPRPSSEKIAAIAEKLDLKKNVVRVWFCNQRQKQKRMKFSATY | -0.7489
5 | POU3F1 (protein, UniProt Q03052 1-451, looked up) POU domain, class 3, …: MATTAQYLPRGPGGGAGGTGPLMHPDAAAAAAAAAAAERLHAGAAYREVQKLMHHEWLGAGAGHPVGLAHPQWLPTGGGGGGDWAGGPHLEHGKAGGGGTGRADDGGGGGGFHARLVHQGAAHAGAAWAQGSTAHHLGPAMSPSPGASGGHQPQPLGLYAQAAYPGGGGGGLAGMLAAGGGGAGPGLHHALHEDGHEAQLEPSPPPHLGAHGHAHGHAHAGGLHAAAAHLHPGAGGGGSSVGEHSDEDAPSSDDLEQFAKQFKQRRIKLGFTQADVGLALGTLYGNVFSQTTICRFEALQLSFKNMCKLKPLLNKWLEETDSSSGSPTNLDKIAAQGRKRKKRTSIEVGVKGALESHFLKCPKPSAHEITGLADSLQLEKEVVRVWFCNRRQKEKRMTPAAGAGHPPMDDVYAPGELGPGGGGASPPSAPPPPPPAALHHHHHHTLPGSVQ | -0.6601
6 | PRDM10 (protein, UniProt Q9NQV6 1-1147, looked up) PR domain zinc finger protein …: MDSKDESSHVWPTSAEHEQNAAQVHFVPDTGTVAQIVYTDDQVRPPQQVVYTADGASYTSVDGPEHTLVYIHPVEAAQTLFTDPGQVAYVQQDATAQQASLPVHNQVLPSIESVDGSDPLATLQTPLGRLEAKEEEDEDEDEDTEEDEEEDGEDTDLDDWEPDPPRPFDPHDLWCEECNNAHASVCPKHGPLHPIPNRPVLTRARASLPLVLYIDRFLGGVFSKRRIPKRTQFGPVEGPLVRGSELKDCYIHLKVSLDKGDRKERDLHEDLWFELSDETLCNWMMFVRPAQNHLEQNLVAYQYGHHVYYTTIKNVEPKQELKVWYAASYAEFVNQKIHDISEEERKVLREQEKNWPCYECNRRFISSEQLQQHLNSHDEKLDVFSRTRGRGRGRGKRRFGPGRRPGRPPKFIRLEITSENGEKSDDGTQDLLHFPTKEQFDEAEPATLNGLDQPEQTTIPIPQLPQETQSSLEHEPETHTLHLQPQHEESVVPTQSTLTADDMRRAKRIRLELQNAALQHLFIRKSFRPFKCLQCGKAFREKDKLDQHLRFHGREGNCPLTCDLCNKGFISSTSLESHMKLHSDQKTYSCIFCPESFDRLDLLKDHVAIHINDGYFTCPTCKKRFPDFIQVKKHVRSFHSEKIYQCTECDKAFCRPDKLRLHMLRHSDRKDFLCSTCGKQFKRKDKLREHMQRMHNPEREAKKADRISRSKTFKPRITSTDYDSFTFKCRLCMMGFRRRGMLVNHLSKRHPDMKIEEVPELTLPIIKPNRDYFCQYCDKVYKSASKRKAHILKNHPGAELPPSIRKLRPAGPGEPDPMLSTHTQLTGTIATPPVCCPHCSKQYSSKTKMVQHIRKKHPEFAQLSNTIHTPLTTAVISATPAVLTTDSATGETVVTTDLLTQAMTELSQTLTTDYRTPQGDYQRIQYIPVSQSASGLQQPQHIQLQVVQVASATSPHQSQQSTVDVGQLHDPQPYPQHAIQVQHIQVSGQPLSPSAQQAQQGLSPSHIQGSSSTQGQALQQQQQQQQNSSVQHTYLPSAWNSFRGYSSEIQMMTLPPGQFVITDSGVATPVTTGQVKAVTSGHYVLSESQSELEEKQTSALSGGVQVEPPAHSDSLDPQTNSQQQTTQYIITTTTNGNGSSEVHITKP | 0.3409
7 | POU3F3 (protein, UniProt P20264 1-500, looked up) POU domain, class 3, …: MATAASNPYLPGNSLLAAGSIVHSDAAGAGGGGGGGGGGGGGGAGGGGGGMQPGSAAVTSGAYRGDPSSVKMVQSDFMQGAMAASNGGHMLSHAHQWVTALPHAAAAAAAAAAAAVEASSPWSGSAVGMAGSPQQPPQPPPPPPQGPDVKGGAGRDDLHAGTALHHRGPPHLGPPPPPPHQGHPGGWGAAAAAAAAAAAAAAAAHLPSMAGGQQPPPQSLLYSQPGGFTVNGMLSAPPGPGGGGGGAGGGAQSLVHPGLVRGDTPELAEHHHHHHHHAHPHPPHPHHAQGPPHHGGGGGGAGPGLNSHDPHSDEDTPTSDDLEQFAKQFKQRRIKLGFTQADVGLALGTLYGNVFSQTTICRFEALQLSFKNMCKLKPLLNKWLEEADSSTGSPTSIDKIAAQGRKRKKRTSIEVSVKGALESHFLKCPKPSAQEITNLADSLQLEKEVVRVWFCNRRQKEKRMTPPGIQQQTPDDVYSQVGTVSADTPPPHHGLQTSVQ | 1.399
8 | POU3F2 (protein, UniProt P20265 1-443, looked up) POU domain, class 3, …: MATAASNHYSLLTSSASIVHAEPPGGMQQGAGGYREAQSLVQGDYGALQSNGHPLSHAHQWITALSHGGGGGGGGGGGGGGGGGGGGGDGSPWSTSPLGQPDIKPSVVVQQGGRGDELHGPGALQQQHQQQQQQQQQQQQQQQQQQQQQRPPHLVHHAANHHPGPGAWRSAAAAAHLPPSMGASNGGLLYSQPSFTVNGMLGAGGQPAGLHHHGLRDAHDEPHHADHHPHPHSHPHQQPPPPPPPQGPPGHPGAHHDPHSDEDTPTSDDLEQFAKQFKQRRIKLGFTQADVGLALGTLYGNVFSQTTICRFEALQLSFKNMCKLKPLLNKWLEEADSSSGSPTSIDKIAAQGRKRKKRTSIEVSVKGALESHFLKCPKPSAQEITSLADSLQLEKEVVRVWFCNRRQKEKRMTPPGGTLPGAEDVYGGSRDTPPHHGVQTPVQ | -0.6292
9 | POU3F4 (protein, UniProt P49335 1-361, looked up) POU domain, class 3, …: MATAASNPYSILSSTSLVHADSAGMQQGSPFRNPQKLLQSDYLQGVPSNGHPLGHHWVTSLSDGGPWSSTLATSPLDQQDVKPGREDLQLGAIIHHRSPHVAHHSPHTNHPNAWGASPAPNPSITSSGQPLNVYSQPGFTVSGMLEHGGLTPPPAAASAQSLHPVLREPPDHGELGSHHCQDHSDEETPTSDELEQFAKQFKQRRIKLGFTQADVGLALGTLYGNVFSQTTICRFEGLQLSFKNMCKLKPLLNKWLEEADSSTGSPTSIDKIAAQGRKRKKRTSIEVSVKGVLETHFLKCPKPAAQEISSLADSLQLEKEVVRVWFCNRRQKEKRMTPPGDQQPHEVYSHTVKTDTSCHDL | -0.484
10 | PRDM12 (protein, UniProt Q9H4Q4 1-367, looked up) PR domain zinc finger protein …: MMGSVLPAEALVLKTGLKAPGLALAEVITSDILHSFLYGRWRNVLGEQLFEDKSHHASPKTAFTAEVLAQSFSGEVQKLSSLVLPAEVIIAQSSIPGEGLGIFSKTWIKAGTEMGPFTGRVIAPEHVDICKNNNLMWEVFNEDGTVRYFIDASQEDHRSWMTYIKCARNEQEQNLEVVQIGTSIFYKAIEMIPPDQELLVWYGNSHNTFLGIPGVPGLEEDQKKNKHEDFHPADSAAGPAGRMRCVICHRGFNSRSNLRSHMRIHTLDKPFVCRFCNRRFSQSSTLRNHVRLHTGERPYKCQVCQSAYSQLAGLRAHQKSARHRPPSTALQAHSPALPAPHAHAPALAAAAAAAAAAAAHHLPAMVL | -1.027
